Article PMC7567689, “High-level expression of aryl-alcohol oxidase 2 from Pleurotus eryngii in Pichia pastoris for production of fragrances and bioactive precursors” (Applied Microbiology and Biotechnology, 2020)

Assays:
PeAAO2 [1] = molecular target: T1, PeAAO2 (Pleurotus eryngii, UniProt D3YBH4); assay: direct UV assay of veratraldehyde formation at […] nm, Michaelis-Menten fit; type: biochemical; conditions: 100 mM sodium phosphate pH 6.0, 25 °C; O2 as co-substrate; glycosylated enzyme; read-out: PeAAO2 from P. eryngii expressed in P. pastoris^a
T1 construct: no tag mentioned

C/C=C/C=C/CO = system: T2, C/C=C/C=C/CO; assay: purified protein; type: biochemical, Pleurotus eryngii; conditions: 100 mM sodium phosphate pH 6.0, 25 °C, O2 as co-substrate, glycosylated enzyme
T2 construct: no tag mentioned

OCc1ccccc1 = system: T3, OCc1ccccc1; assay: purified protein; type: biochemical, Pleurotus eryngii; conditions: 100 mM sodium phosphate pH 6.0, 25 °C, O2 as co-substrate, glycosylated enzyme
T3 construct: no tag mentioned

OC/C=C/c1ccccc1 = system: T4, OC/C=C/c1ccccc1; assay: purified protein; type: biochemical, Pleurotus eryngii; conditions: 100 mM sodium phosphate pH 6.0, 25 °C, O2 as co-substrate, glycosylated enzyme, substrate in DMSO
T4 construct: no tag mentioned

OCc1ccc2c(c1)OCO2 = system: T5, OCc1ccc2c(c1)OCO2; assay: purified protein; type: biochemical, Pleurotus eryngii; conditions: 100 mM sodium phosphate pH 6.0, 25 °C, O2 as co-substrate, glycosylated enzyme
T5 construct: no tag mentioned

PeAAO2 [2] = molecular target: T1, PeAAO2; assay: direct UV assay of cuminaldehyde formation at […] nm, Michaelis-Menten fit; type: biochemical; conditions: 100 mM sodium phosphate pH 6.0, 25 °C; O2 as co-substrate; glycosylated enzyme; read-out: PeAAO2 from P. eryngii expressed in P. pastoris^a

T1 sequence (D3YBH4 28-593 limits assumed): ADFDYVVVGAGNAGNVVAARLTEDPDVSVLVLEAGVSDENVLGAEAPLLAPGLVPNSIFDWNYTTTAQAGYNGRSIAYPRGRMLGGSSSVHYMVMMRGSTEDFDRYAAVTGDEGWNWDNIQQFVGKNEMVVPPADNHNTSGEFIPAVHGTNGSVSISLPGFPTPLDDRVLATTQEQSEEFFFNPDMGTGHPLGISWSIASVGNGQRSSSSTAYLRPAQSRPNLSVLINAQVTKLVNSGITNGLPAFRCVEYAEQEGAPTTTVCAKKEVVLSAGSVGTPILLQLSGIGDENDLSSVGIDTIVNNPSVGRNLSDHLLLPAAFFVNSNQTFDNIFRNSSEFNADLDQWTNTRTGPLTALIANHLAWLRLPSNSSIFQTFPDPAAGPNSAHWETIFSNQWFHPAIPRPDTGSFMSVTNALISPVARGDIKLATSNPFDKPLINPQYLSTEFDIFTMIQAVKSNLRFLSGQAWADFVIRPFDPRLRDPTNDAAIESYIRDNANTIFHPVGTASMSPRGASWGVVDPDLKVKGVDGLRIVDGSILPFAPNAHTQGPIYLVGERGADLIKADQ

How did the Km (PeAAO2 [1]) turn out when COc1ccc(CO)cc1OC [Veratryl alcohol] was run?
Its Km is 447 ± 7.5 µM.

For PeAAO2 (Pleurotus eryngii), which Km (C/C=C/C=C/CO) is on record?
The Km was 143.6 ± 11.5 µM.

And the kcat (C/C=C/C=C/CO)?
Its kcat is 68.8 ± 0.05 s⁻¹.

What about the kcat/Km (C/C=C/C=C/CO) of the same compound?
Its kcat/Km is 479000 M⁻¹ s⁻¹.

What about the Km (OCc1ccccc1) of the same compound?
Its Km is 599.6 ± 18.7 µM.

What about the kcat (OCc1ccccc1) of the same compound?
The kcat was 12.8 ± 0.01 s⁻¹.

And the kcat/Km (OCc1ccccc1)?
The kcat/Km was 21400 M⁻¹ s⁻¹.

And the Km (OC/C=C/c1ccccc1)?
Its Km is 2740 ± 103 µM.

What about the kcat (OC/C=C/c1ccccc1) of the same compound?
The kcat was 125.5 ± 0.1 s⁻¹.

And the kcat/Km (OC/C=C/c1ccccc1)?
Its kcat/Km is 45800 M⁻¹ s⁻¹.

And the Km (OCc1ccc2c(c1)OCO2)?
Its Km is 59.1 ± 3.0 µM.

What about the kcat (OCc1ccc2c(c1)OCO2) of the same compound?
Its kcat is 35.5 ± 0.02 s⁻¹.

And the kcat/Km (OCc1ccc2c(c1)OCO2)?
Its kcat/Km is 600000 M⁻¹ s⁻¹.

For CC(C)c1ccc(CO)cc1 [Cumic alcohol], which Km (PeAAO2 [2]) is on record?
The Km was 1910 ± 42.4 µM.
